Measurements published in article PMC6007404 (Nucleic Acids Research, 2018).

How the values were obtained:
[1] = target: the molecule itself; assay: crystal structure; MotA^linker/CTD mixed with 22 bp MotA box DNA at 1.15:1 DNA:protein; 23% PEG 8000, 0.12 M sodium acetate, 0.1 M sodium cacodylate pH 6.5, 3% glycerol; space group P6_(1), 2.96 Å; four protein copies and two DNA duplexes in the asymmetric unit
[2] = target: T1, MotA (Enterobacteria phage T4, UniProt P22915 1-211); assay: EMSA; steep curve, value uncertain; EMSA: 0.01 pmol 32P-DNA, 1.7 pmol MotA, native 12% PAGE in 1x TBE at 4 C, other conditions as in ref 14; SPR: biotin-DNA on neutravidin chip, buffer as in ref 2
T1 sequence: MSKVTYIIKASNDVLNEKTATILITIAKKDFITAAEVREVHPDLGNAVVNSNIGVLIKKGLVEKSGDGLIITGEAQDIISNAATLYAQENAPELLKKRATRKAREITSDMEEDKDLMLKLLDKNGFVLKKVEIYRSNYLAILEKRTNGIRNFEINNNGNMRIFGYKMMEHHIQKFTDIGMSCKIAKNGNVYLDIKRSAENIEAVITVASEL

[3] = target: T1, MotA; assay: EMSA; EMSA: 0.01 pmol 32P-DNA, 1.7 pmol MotA, native 12% PAGE in 1x TBE at 4 C, other conditions as in ref 14; SPR: biotin-DNA on neutravidin chip, buffer as in ref 2
[4] = target: T1, MotA; assay: competition; EMSA vs labeled N6; EMSA: 0.01 pmol 32P-DNA, 1.7 pmol MotA, native 12% PAGE in 1x TBE at 4 C, other conditions as in ref 14; SPR: biotin-DNA on neutravidin chip, buffer as in ref 2
[5] = target: T2, MotAlinker/CTD (Enterobacteria phage T4, UniProt P22915 93-211); assay: X-ray crystallography; cognate complexes A and C; further non-cognate copies B and D on the opposite face; 2.96 A; EMSA: 0.01 pmol 32P-DNA, 1.7 pmol MotA, native 12% PAGE in 1x TBE at 4 C, other conditions as in ref 14; SPR: biotin-DNA on neutravidin chip, buffer as in ref 2
T2 sequence: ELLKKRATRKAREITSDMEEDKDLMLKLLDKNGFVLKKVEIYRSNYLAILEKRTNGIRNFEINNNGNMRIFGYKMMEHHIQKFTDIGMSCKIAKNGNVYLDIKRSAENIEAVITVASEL

B1: MotA^linker/CTD (C-terminal domain and linker region of MotA, amino acids 93-211) (domain or fragment, bacteriophage T4, UniProt P22915 93-211, looked up)
chain: T2 sequence
- binding result [1]: binds

B2: EMSA 19-mer GHMe/unmod (dsDNA)
DNA 1: AATTATTTGCTTTAGATTA
DNA 2: TAATCTAAAGCAAATAATT
modifications: beta-D-glucosyl-5-hydroxymethyl-dC at top C10
- Kd [2]: ~20 nM

B3: EMSA 19-mer unmodified (dsDNA)
DNA 1: AATTATTTGCTTTAGATTA
DNA 2: TAATCTAAAGCAAATAATT
- Kd [3]: ~140 nM

B4: EMSA mutant competitor (dsDNA)
DNA 1: AATTATTATACTTAGATTA
DNA 2: TAATCTAAGTATAATAATT
- binding result [4]: no binding

B5: 22-mer MotA box DNA (crystal) (dsDNA)
DNA 1: GAAGCTTTGCTTAATAATCCAC
DNA 2: GTGGATTATTAAGCAAAGCTTC
- binding result [5]: binds
